Data as given in paper PMC6494689.

Key:
[1] = target: MBP-tagged core BbRAG1L (cBbRAG1L; aa 468-1136) (Branchiostoma belcheri); assay: SEC-MALS
[2] = target: BbRAG1L NBD* domain (purified NBD* protein) (Branchiostoma belcheri); assay: SEC-MALS

MBP-tagged full length BbRAG2L (natural protein)
stoichiometry N (BbRAG2L per cBbRAG1L (2:2)) [1]: 1

BbRAG1L NBD* domain (purified NBD* protein) (domain or fragment)
stoichiometry N [2]: 2
